Target: T1, Myc-hFis1[1-152] (human), Q9Y3D6
T1 chain: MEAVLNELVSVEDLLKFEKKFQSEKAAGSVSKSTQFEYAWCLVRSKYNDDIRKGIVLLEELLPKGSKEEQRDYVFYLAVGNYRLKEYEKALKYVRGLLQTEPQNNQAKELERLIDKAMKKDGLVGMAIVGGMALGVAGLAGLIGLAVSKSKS
Experiment: cross-linking
Conditions: remark: other sources report otherwise

stoichiometry N: 2
B1: Myc-hFis1[1-152], Q9Y3D6 1-152 (natural protein)
chain: MEAVLNELVSVEDLLKFEKKFQSEKAAGSVSKSTQFEYAWCLVRSKYNDDIRKGIVLLEELLPKGSKEEQRDYVFYLAVGNYRLKEYEKALKYVRGLLQTEPQNNQAKELERLIDKAMKKDGLVGMAIVGGMALGVAGLAGLIGLAVSKSKS

Reference: article PMC2605612
